# Test results as given in the supplement of paper PMC9170038.
# Tested on: MS2 coat protein
# Assay: apparent KD of MS2 coat protein; designed switch direction (-1 OFF switch, 1 ON switch): -1; higher = weaker reporter binding
# Outline: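 Stalled E. coli RNA polymerase transcribed designed RNA switches on Illumina chips, which were then titrated with SNAP-549-labelled MS2 coat protein, doubling from 0.7 or 1.5 nM to 3 µM. Steps lasted from 0.8–1.5 h at the lowest concentration to 10–20 min at the highest. The apparent KD is each design's median over clusters of curve-fitted normalised fluorescence.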
# [1] = Eterna round: R95, input ligand: FMN 200 uM
# [2] = Eterna round: R95, input ligand: microRNA oligo, concentration not stated
# [3] = Eterna round: R95, input ligand: none
# [4] = input ligand: microRNA oligo, concentration not stated
sequence,measurement,setting,value
UCCUCACAUGAGGAUCACCCAUGUCAGGAUAUACAAGAAAAUAACCGGAAAGACCGGAGUAGAAGGGACAUAAG [Beleonrala] (puzzle: Exclusion 1),apparent KD of MS2 coat protein,[1],0.0316 µM
same,apparent KD of MS2 coat protein,[2],0.0161 µM
same,apparent KD of MS2 coat protein,[3],0.0161 µM
"UAGUUGCUCAGGGAGUGUGACAUGAGGAUCACCCAUGUGGUGGUAGGGAACAAGCUUUUUGCACGUACUUAUGAGUU [JR_SV3TOV1_Sub008] (puzzle: Sensor v3, turn-off variant 1)",apparent KD of MS2 coat protein,[1],0.15 µM
same,apparent KD of MS2 coat protein,[2],0.0425 µM
same,apparent KD of MS2 coat protein,[3],0.184 µM
"CACCGUUAUGGAGGAUAUCGUACAUGAGGAUCACCCAUGUAAUAAAUGAGAAUUUCGGAUGUAUGCGAGAAGGCCAAAAUCGGC [Ostracism 43 - Jieux - Exclusion NG 2] (Eterna round: R96, puzzle: Exclusion NG 2)",apparent KD of MS2 coat protein,input ligand: FMN 200 uM,0.0466 µM
same,apparent KD of MS2 coat protein,[4],0.0269 µM
same,apparent KD of MS2 coat protein,input ligand: none,0.0435 µM
"AACACUGCAGGAUAUACAUGAGGAUCACCCAUGUGAUCCGAUAACUCCCACGGGAGGAGUAGAAGGGUAAAAGG [Eternabot (Original) Solution 6] (Eterna round: R97, puzzle: Exclusion 3)",apparent KD of MS2 coat protein,input ligand: FMN 200 uM,0.17 µM
same,apparent KD of MS2 coat protein,input ligand: none,0.264 µM
CAUACAGUAGUUAGGAUAUUGCAACGCACACGGAACGAGAAGGGACAUGAGGAUCACCCAUGUAGACUGUAAAG [EX-4 Malc #7] (puzzle: Brourd's mod of Exclusion 4),apparent KD of MS2 coat protein,[1],0.0201 µM
same,apparent KD of MS2 coat protein,[2],0.0185 µM
same,apparent KD of MS2 coat protein,[3],0.0247 µM
"UUAAAUCAUGUAGGAUAUGCGUGGCGAAGCUAUGCAGAAGGACAUGAGGAUCACCCAUGUUCUUCCGUCUGCGUACAGAUGGAA [JL ENG1 1.08] (Eterna round: R96, puzzle: Exclusion NG 1)",apparent KD of MS2 coat protein,input ligand: FMN 200 uM,0.271 µM
same,apparent KD of MS2 coat protein,[4],0.0338 µM
same,apparent KD of MS2 coat protein,input ligand: none,0.0363 µM
"AACGUCUAGGUAGGAUAUCCACCAACAGGUGGAAGGAUAUGUACGCAGAAGGUUCGCCAACAGGCGGAGAAGGACCUACGCGUA [pwkr exNG2 2xF7 2xFMN.30] (Eterna round: R96, puzzle: Exclusion NG 2)",apparent KD of MS2 coat protein,input ligand: FMN 200 uM,0.274 µM
same,apparent KD of MS2 coat protein,[4],0.0576 µM
same,apparent KD of MS2 coat protein,input ligand: none,0.34 µM
"UUGUUGUAUGUAGGAUAUGCGUGUUAUUAUUAUGCAGAAGGACAUGAGGAUCACCCAUGUGUAUUAUUAUUAUAUAUUAUAUAU [Title] (Eterna round: R96, puzzle: Exclusion NG 1)",apparent KD of MS2 coat protein,[4],0.0141 µM
"AGAAACUCAAGAGGAUAUCACAUGAGGAUCACCCAUGUAUAGCGCGCUAUGCUAGUCCUCGUAUAUGAGAAGGUUUGAAAUAAG [Mat - Exclusion NG 2 - Mod of JL - D80] (Eterna round: R96, puzzle: Exclusion NG 2)",apparent KD of MS2 coat protein,input ligand: FMN 200 uM,0.0164 µM
same,apparent KD of MS2 coat protein,[4],0.0126 µM
same,apparent KD of MS2 coat protein,input ligand: none,0.0179 µM
"CGAUAUAAGUCAGGAUAUGAGCGCAACUGACGAUCAGAAGGGACACAUGAGGAUCACCCAUGUGAUCUAUCAAUAUUAUACAUC [Prohibition 92 - Jieux - Exclusion NG 1] (Eterna round: R96, puzzle: Exclusion NG 1)",apparent KD of MS2 coat protein,input ligand: FMN 200 uM,0.0255 µM
same,apparent KD of MS2 coat protein,[4],0.0162 µM
same,apparent KD of MS2 coat protein,input ligand: none,0.0215 µM
GUGGAGUAAGGAUAUACAUGAGGAUCACCCAUGUGAGGGUAUGUGAUGGGAGUAGGUUGUAGAAGGUACGAGGA [JR_Exclu3_Sub068] (puzzle: Exclusion 3),apparent KD of MS2 coat protein,[2],0.16 µM
"UAGGGUAAGUCAUGUACGAACAUGAGGAUCACCCAUGUAGCUGAAAUAAACCUCGUCCAAAUCUUUCCGUAAAAUGU [Zavein] (Eterna round: R96, puzzle: Sensor v2, turn-off variant)",apparent KD of MS2 coat protein,input ligand: FMN 200 uM,0.271 µM
same,apparent KD of MS2 coat protein,[4],0.211 µM
same,apparent KD of MS2 coat protein,input ligand: none,0.295 µM
"AAGUCGAGCGUGAGGAUAUCGUUCGAACGACCGAACGAGAAGGCACAUGAGGAUCACCCAUGUGAUUCAGCUCA [Brourd's EX4 #47] (Eterna round: R97, puzzle: Brourd's mod of Exclusion 4)",apparent KD of MS2 coat protein,input ligand: FMN 200 uM,0.0936 µM
same,apparent KD of MS2 coat protein,input ligand: none,0.0197 µM
AUAGAGUCAGGAUAUACAAGAUGAAAGAUAGAUAGAAGAAAGUAGAAGGGACAUGAGGAUCACCCAUGUAAGAA [JR_Exclu4_Sub051] (puzzle: Exclusion 4),apparent KD of MS2 coat protein,[1],0.0349 µM
same,apparent KD of MS2 coat protein,[2],0.0317 µM
same,apparent KD of MS2 coat protein,[3],0.0362 µM
"AGCUGUGGCCGAGGAUAUCAAGACCGAUGGAAAACCAUCGGAACUCAACAUGAGGAUCACCCAUGUGAGAAGGCGGUCUCAGCA [Eli eng2 - 027] (Eterna round: R96, puzzle: Exclusion NG 2)",apparent KD of MS2 coat protein,input ligand: FMN 200 uM,0.0109 µM
same,apparent KD of MS2 coat protein,[4],0.00782 µM
same,apparent KD of MS2 coat protein,input ligand: none,0.0109 µM
"GGGUGCAGGCUGAGGUCCUACAUGAGGAUCACCCAUGUGGUCCGGUGACGUGAGUCACCGGACUUGGCUCGUCUUGU [salish99_S_TOV1_R5_010] (Eterna round: R97, puzzle: Sensor, turn-off variant 1)",apparent KD of MS2 coat protein,input ligand: FMN 200 uM,0.0415 µM
same,apparent KD of MS2 coat protein,input ligand: none,0.0505 µM
"GGCGAAGUAGGAUAUACAUGAGGAUCACCCAUGUAACCUAUAGGCGAAGAUCUUCUAUGUAGAAGGACUACGCU [jl-ex3-4.40 ViennaUCT mod] (Eterna round: R97, puzzle: Exclusion 3)",apparent KD of MS2 coat protein,input ligand: FMN 200 uM,0.0153 µM
same,apparent KD of MS2 coat protein,input ligand: none,0.0153 µM
"UUUUUAUAUGAAGGAUAUACUUAACAUGAGGAUCACCCAUGUGGUGUUGUGAGUGAGAGAGUUUAGUAGAAGGUCAAUUAUUUU [JMF's solution 5] (Eterna round: R96, puzzle: Exclusion NG 2)",apparent KD of MS2 coat protein,input ligand: FMN 200 uM,0.714 µM
same,apparent KD of MS2 coat protein,[4],0.28 µM
same,apparent KD of MS2 coat protein,input ligand: none,0.3 µM
"ACAUGAGGAUCACCCAUGUCAGGCUGGUCCACUCCGGCUGUUGAGGAUAUAGCCCGGUAUCCGCGCUAGAAGGUGAGGGCCGGC [Aenatbe mod 27] (Eterna round: R96, puzzle: Exclusion NG 3)",apparent KD of MS2 coat protein,input ligand: FMN 200 uM,0.0255 µM
same,apparent KD of MS2 coat protein,[4],0.0176 µM
same,apparent KD of MS2 coat protein,input ligand: none,0.023 µM
GCAUCCAAUGUGAGGAUAUACCUCUGGAUACAUAGGUAGAAGGCACAUGAGGAUCACCCAUGUCCUAAGGAUGC [Fiskers BMX 4 - 28] (puzzle: Brourd's mod of Exclusion 4),apparent KD of MS2 coat protein,[2],0.075 µM
AUAUAUAGUGUGAGGAUAUGCUGGUCCUUGGAUCAGCAGAAGGCACAUGAGGAUCACCCAUGUAGUUUAUUUUU [Mat - Exclusion 4 - JL Mod - D5] (puzzle: Brourd's mod of Exclusion 4),apparent KD of MS2 coat protein,[2],0.0262 µM
GGUGCGUUUGUGAGGAUAUGCUGGUCCUUGGAUCAGCAGAAGGCACAUGAGGAUCACCCAUGUGGUGUCGUCCC [salish99_Bmod_Ex4_041] (puzzle: Brourd's mod of Exclusion 4),apparent KD of MS2 coat protein,[2],0.21 µM
"AGAAAUGCCCAUGGCAACAAGCUUUUUGCUUGUCUUACCACAUGAGGAUCACCCAUGUGACAUGGGCUCCUGAUAAU [Ladidier] (puzzle: Sensor v3, turn-off variant 2)",apparent KD of MS2 coat protein,[1],0.0124 µM
same,apparent KD of MS2 coat protein,[2],0.0106 µM
same,apparent KD of MS2 coat protein,[3],0.0122 µM
"ACGUGAUAUCUGUCGGUGGACAUGAGGAUCACCCAUGUGAGCUUUUUGCUCGUCUUAUAACCCGAUGACAGACCUUC [Anorin] (puzzle: Sensor v3, turn-off variant 1)",apparent KD of MS2 coat protein,[1],0.0142 µM
same,apparent KD of MS2 coat protein,[2],0.266 µM
same,apparent KD of MS2 coat protein,[3],0.013 µM
"AGUAGUAGUAUCCGAUCCUACAUGAGGAUCACCCAUGUAGGUAGACGUGCACGCGAUGCUCGUCAGACUACCAGAUG [salish99_TOv1_r3_039] (puzzle: Sensor v3, turn-off variant 1)",apparent KD of MS2 coat protein,[1],0.0121 µM
same,apparent KD of MS2 coat protein,[2],0.0114 µM
same,apparent KD of MS2 coat protein,[3],0.0134 µM
"AAUUAUUGAUGAGGAUAUUGUGGUGAAACACGACAAGAAGGCAUUAUUCACAUGAGGAUCACCCAUGUGAGCCUGGUGCAUAUA [Ex NG1 #61] (Eterna round: R96, puzzle: Exclusion NG 1)",apparent KD of MS2 coat protein,[4],0.0116 µM
GCCGAUUAAGUCAGGAUAUACCUAUGGAUACAUAGGUAGAAGGGACAUGAGGAUCACCCAUGUUCCUCAUCGGC [Fiskers BMX 4 - 12] (puzzle: Brourd's mod of Exclusion 4),apparent KD of MS2 coat protein,[1],0.0416 µM
same,apparent KD of MS2 coat protein,[2],0.0135 µM
same,apparent KD of MS2 coat protein,[3],0.0169 µM
"UUAAUUAGCAGACUAAUACCUCACAUGAGGAUCACCCAUGUGCAGGAUAUCAGCUCGAUUAGAGCUGAGAAGGGCACUGUCUGC [ExNG3/12-A1] (Eterna round: R96, puzzle: Exclusion NG 3)",apparent KD of MS2 coat protein,input ligand: FMN 200 uM,0.0148 µM
same,apparent KD of MS2 coat protein,[4],0.00801 µM
same,apparent KD of MS2 coat protein,input ligand: none,0.0113 µM
UUUUAGGGAGGAUAUACAUUUUUUUUAUUAUCCUCAUUAUUACAUGAGGAUCACCCAUGUAGAAGGCCCAUUUU [My Design] (puzzle: Exclusion 2),apparent KD of MS2 coat protein,[2],0.084 µM
UUUAGUAUCUAGGAUAUCUAGUACAUAGUAUCUAGAGAAGGAGAUACAUGAGGAUCACCCAUGUUCUGUGUUCU [Exclusion 6 - 1:a] (puzzle: Exclusion 6),apparent KD of MS2 coat protein,[2],0.0224 µM
"UGUUGUCACGCAGGAUAUGUAUGAGGAUCACCCAUUAAUAAAUUUUAACCACGAGGAUCACCCGUGUAGAAGGGCGGGACAACA [pwkr exNG2 2xF5 1xFMN.14] (Eterna round: R96, puzzle: Exclusion NG 2)",apparent KD of MS2 coat protein,input ligand: FMN 200 uM,0.0306 µM
same,apparent KD of MS2 coat protein,[4],0.0201 µM
same,apparent KD of MS2 coat protein,input ligand: none,0.0299 µM
"AAGUACCGUCACGAUAGUGAUGGUACAACAGGUAGUGAAACAUGAGGAUCACCCAUGUCCUCAAUUGCUCGUCUUAU [Sensor 3 - 84] (puzzle: Sensor v3, turn-off variant 2)",apparent KD of MS2 coat protein,[1],0.773 µM
same,apparent KD of MS2 coat protein,[2],0.179 µM
same,apparent KD of MS2 coat protein,[3],0.716 µM
GAUCUGACAGGAUAUACAUGAGGAUCACCCAUGUGCGAGCUAGCGAAAGCUAGCUCAGGUAGAAGGGUCAGAUC [Ex3 dot plot directed] (puzzle: Exclusion 3),apparent KD of MS2 coat protein,[2],0.0116 µM
